# Test results reported in patent US9260501B2, “Peptide extended insulins” (priority 2006, dated 2016).
# Target: purified recombinant human insulin receptor - (minus) exon 11 (human) (UniProt P06213)
# Assay: SPA antibody-capture competition assay, displacement of A14 Tyr[125I]-human insulin from recombinant human insulin receptor minus exon 11; affinity relative to human insulin
# Details: not given
row,Relative insulin receptor binding [%],Substance
1,11,"A14E, A21Q, A22-A45G, B(-12)-(-1)G, B25H, desB30 Human Insulin (from UniProt P01308) (ligand)"
2,2,"A14E, A21Q, A22-A62G, B25H, desB30 Human Insulin (from UniProt P01308) (ligand)"
3,12,"A14E, A21Q, A22G-A51G, B25H, desB30 Human Insulin (from UniProt P01308) (ligand)"
4,14,"A21Q, A22-A45G, B(-6)-(-1G), desB30 Human Insulin (from UniProt P01308) (ligand)"
5,13,"A21Q, A22-A45G, B(-18)-(-1)G, desB30 Human Insulin (from UniProt P01308) (ligand)"
6,14,"A21Q, A22-A45G, desB30 Human Insulin (from UniProt P01308) (ligand)"
7,17,"A21Q, A22-A51G, desB30 Human Insulin (from UniProt P01308) (ligand)"
8,20,"A21Q, A22-A57G, desB30 Human Insulin (from UniProt P01308) (ligand)"
9,44,A22-27G desB30 Human Insulin (from UniProt P01308) (ligand)
10,30,A22-39G desB30 Human Insulin (from UniProt P01308) (ligand)

# Continued, substance first:
row,Substance,Relative insulin receptor binding [%]
1,"A14E, A21Q, A22-A45G, B25H, desB30 Human Insulin (from UniProt P01308) (ligand)",12
2,"A14E, A21Q, A22-A45G, B(-6)-(-1)G, B25H, desB30 Human Insulin (from UniProt P01308) (ligand)",10
3,"A14E, A21Q, A22-A45G, B(-18)-(-1)G, B25H, desB30 Human Insulin (from UniProt P01308) (ligand)",7.2
4,"A14E, A21Q, A22-A57G, B25H, desB30 Human Insulin (from UniProt P01308) (ligand)",14
5,"A21Q, A22-A45G, B(-12)-(-1)G, desB30 Human Insulin (from UniProt P01308) (ligand)",16
6,A22-33G desB30 Human Insulin (from UniProt P01308) (ligand),41
7,A22-45G desB30 Human Insulin (from UniProt P01308) (ligand),25

# Target: human insulin receptor (Homo sapiens, UniProt P06213)
# Assay: Insulin receptor binding, SPA (Scintillation Proximity Assay) microtiterplate antibody capture assay
# Details: binding affinity relative to that of human insulin; purified recombinant human insulin receptor minus exon 11; A14 Tyr[125I]-human insulin tracer
# Description: These extended insulins were tested for biological insulin activity as measured by binding affinity to the human insulin receptor relative to that of human insulin as described below.
# Insulin Receptor Binding of the Insulins of the Invention
# The affinity of the insulins of the invention for the human insulin receptor can be determined by a SPA assay (Scintillation Proximity Assay) microtiterplate antibody capture assay. […] Reagent mix for a single Packard Optiplate (Packard No. 6005190) is composed of 2.4 μl of a 1:5000 diluted purified recombinant human insulin receptor − (minus) exon 11, an amount of a stock solution of A14 Tyr[125I]-human insulin corresponding to 5000 cpm per 100 μl of reagent mix, 12 μl of a 1:1000 dilution of F12 antibody, 3 ml of SPA-beads and binding buffer to a total of 12 ml. A total of 100 μl is then added and a dilution series is made from appropriate samples. To the dilution series is then added 100 μl of reagent mix and the samples are incubated for 16 hours while gently shaken. The phases are then separated by centrifugation for 1 min and the plates counted in a Top-counter. The binding data are fitted using the nonlinear regression algorithm in the GraphPad Prism 2.01 (GraphPad Software, San Diego, Calif.).
# human insulin receptor, sequence (P06213 28-746 isoform P06213-2 limits assumed): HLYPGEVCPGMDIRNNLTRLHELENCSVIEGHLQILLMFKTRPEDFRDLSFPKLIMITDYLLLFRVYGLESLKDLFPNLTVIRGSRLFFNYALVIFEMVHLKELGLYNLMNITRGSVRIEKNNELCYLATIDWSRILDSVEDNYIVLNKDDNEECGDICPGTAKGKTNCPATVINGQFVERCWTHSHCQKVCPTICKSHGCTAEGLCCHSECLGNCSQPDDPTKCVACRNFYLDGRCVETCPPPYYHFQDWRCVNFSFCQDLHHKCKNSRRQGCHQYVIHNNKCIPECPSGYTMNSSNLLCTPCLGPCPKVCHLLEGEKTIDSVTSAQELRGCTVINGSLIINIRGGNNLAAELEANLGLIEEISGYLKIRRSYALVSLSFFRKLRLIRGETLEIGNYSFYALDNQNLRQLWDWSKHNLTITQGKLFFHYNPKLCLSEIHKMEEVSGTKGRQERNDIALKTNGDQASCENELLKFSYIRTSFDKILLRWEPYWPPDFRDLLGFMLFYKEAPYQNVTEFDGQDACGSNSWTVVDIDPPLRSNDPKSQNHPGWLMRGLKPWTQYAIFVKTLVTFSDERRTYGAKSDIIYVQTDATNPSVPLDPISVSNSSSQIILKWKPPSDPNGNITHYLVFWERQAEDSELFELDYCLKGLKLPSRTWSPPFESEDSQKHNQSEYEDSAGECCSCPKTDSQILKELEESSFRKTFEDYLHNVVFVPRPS
# human insulin receptor, sequence (P06213 763-1382 partner limits assumed): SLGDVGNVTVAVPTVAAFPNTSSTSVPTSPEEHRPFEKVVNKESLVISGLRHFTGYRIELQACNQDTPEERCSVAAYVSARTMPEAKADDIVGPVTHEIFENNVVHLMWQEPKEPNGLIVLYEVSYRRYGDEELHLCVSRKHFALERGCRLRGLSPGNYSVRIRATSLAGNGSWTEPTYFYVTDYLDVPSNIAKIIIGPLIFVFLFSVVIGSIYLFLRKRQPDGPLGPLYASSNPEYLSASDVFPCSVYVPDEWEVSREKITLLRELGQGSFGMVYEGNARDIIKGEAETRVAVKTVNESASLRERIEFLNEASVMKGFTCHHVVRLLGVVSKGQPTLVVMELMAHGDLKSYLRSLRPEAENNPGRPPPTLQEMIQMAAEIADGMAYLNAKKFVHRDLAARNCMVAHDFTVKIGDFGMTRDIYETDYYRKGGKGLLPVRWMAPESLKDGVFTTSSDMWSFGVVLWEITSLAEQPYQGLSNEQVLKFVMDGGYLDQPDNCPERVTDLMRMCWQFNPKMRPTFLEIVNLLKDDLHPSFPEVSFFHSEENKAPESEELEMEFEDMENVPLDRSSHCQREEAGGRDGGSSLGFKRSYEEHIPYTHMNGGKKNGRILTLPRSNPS
row,Substance,Relative insulin receptor binding [%]
1,"A14E, A21Q, A22-A62G, B25H, desB30 Human Insulin [Example 20]",2
